Laboratory results as given in patent US20110159022A1, “Immunogenic Peptides Derived from the Midkine Protein, as an Anticancer Vaccine” (priority 2008, published 2011).
Where no end group is shown, it is not given here.

Target: T1, HLA-DR13 (DRB1*1301) (human)
T1 chain 1: not shown
T1 chain 2: not shown
Assay: competition ELISA, nonbiotinylated reference peptide against its biotinylated tracer

IC50: 39 nM
Binder: TERVRLVTRHIYNREE (not fully specified) [B1 21-36 (nonbiotinylated reference peptide)]
